Reference: patent US20230365956A1

Legend:
[1] = molecular target: SARS-CoV-2 RBD variant Alpha (N501Y) (Sino Biological) (SARS-CoV-2) (UniProt P0DTC2); assay: BLI, affinity format: binder on AHC sensor, RBD in solution
[2] = molecular target: SARS-CoV-2 RBD variant Beta (K417N, E484K, N501Y) (Sino Biological) (SARS-CoV-2) (UniProt P0DTC2); assay: as above
[3] = molecular target: SARS-CoV-2 RBD variant Delta (L452R, T478K) (Sino Biological) (SARS-CoV-2) (UniProt P0DTC2); assay: as above
[4] = molecular target: SARS-CoV-2 RBD variant Gamma (K417T, E484K, N501Y) (Sino Biological) (SARS-CoV-2) (UniProt P0DTC2); assay: as above
[5] = molecular target: SARS-CoV-2 RBD variant Kappa (L452R, E484Q) (Sino Biological) (SARS-CoV-2) (UniProt P0DTC2); assay: as above
[6] = molecular target: SARS-CoV-2 RBD variant Lambda (L452Q, F490S) (Sino Biological) (SARS-CoV-2) (UniProt P0DTC2); assay: as above
[7] = molecular target: SARS-CoV-2 RBD variant Alpha (N501Y) (Sino Biological) (SARS-CoV-2) (UniProt P0DTC2); assay: BLI, avidity format: response at highest analyte concentration
[8] = molecular target: SARS-CoV-2 RBD variant Beta (K417N, E484K, N501Y) (Sino Biological) (SARS-CoV-2) (UniProt P0DTC2); assay: as above
[9] = molecular target: SARS-CoV-2 RBD variant Delta (L452R, T478K) (Sino Biological) (SARS-CoV-2) (UniProt P0DTC2); assay: as above
[10] = molecular target: SARS-CoV-2 RBD variant Gamma (K417T, E484K, N501Y) (Sino Biological) (SARS-CoV-2) (UniProt P0DTC2); assay: as above
[11] = molecular target: SARS-CoV-2 RBD variant Kappa (L452R, E484Q) (Sino Biological) (SARS-CoV-2) (UniProt P0DTC2); assay: as above
[12] = molecular target: SARS-CoV-2 RBD variant Lambda (L452Q, F490S) (Sino Biological) (SARS-CoV-2) (UniProt P0DTC2); assay: as above
[13] = molecular target: SARS-CoV-2 RBD variant Alpha (N501Y) (Sino Biological) (SARS-CoV-2) (UniProt P0DTC2); assay: BLI, affinity format: response at highest analyte concentration
[14] = molecular target: SARS-CoV-2 RBD variant Beta (K417N, E484K, N501Y) (Sino Biological) (SARS-CoV-2) (UniProt P0DTC2); assay: as above
[15] = molecular target: SARS-CoV-2 RBD variant Delta (L452R, T478K) (Sino Biological) (SARS-CoV-2) (UniProt P0DTC2); assay: as above
[16] = molecular target: SARS-CoV-2 RBD variant Gamma (K417T, E484K, N501Y) (Sino Biological) (SARS-CoV-2) (UniProt P0DTC2); assay: as above
[17] = molecular target: SARS-CoV-2 RBD variant Kappa (L452R, E484Q) (Sino Biological) (SARS-CoV-2) (UniProt P0DTC2); assay: as above
[18] = molecular target: SARS-CoV-2 RBD variant Lambda (L452Q, F490S) (Sino Biological) (SARS-CoV-2) (UniProt P0DTC2); assay: as above
[19] = molecular target: SARS-CoV-2 RBD variant Alpha (N501Y) (Sino Biological) (SARS-CoV-2) (UniProt P0DTC2); assay: BLI, avidity format: biotinylated RBD on SA sensor, binder in solution
[20] = molecular target: SARS-CoV-2 RBD variant Beta (K417N, E484K, N501Y) (Sino Biological) (SARS-CoV-2) (UniProt P0DTC2); assay: as above
[21] = molecular target: SARS-CoV-2 RBD variant Delta (L452R, T478K) (Sino Biological) (SARS-CoV-2) (UniProt P0DTC2); assay: as above
[22] = molecular target: SARS-CoV-2 RBD variant Gamma (K417T, E484K, N501Y) (Sino Biological) (SARS-CoV-2) (UniProt P0DTC2); assay: as above
[23] = molecular target: SARS-CoV-2 RBD variant Kappa (L452R, E484Q) (Sino Biological) (SARS-CoV-2) (UniProt P0DTC2); assay: as above
[24] = molecular target: SARS-CoV-2 RBD variant Lambda (L452Q, F490S) (Sino Biological) (SARS-CoV-2) (UniProt P0DTC2); assay: as above

## Cilgavimab (antibody)
[1]
  Kd: 2.44 nM
  koff: 0.000981 s⁻¹
  kon: 401000 M⁻¹ s⁻¹
[2]
  Kd: 1.43 nM
  koff: 0.000631 s⁻¹
  kon: 441000 M⁻¹ s⁻¹
[3]
  Kd: 7.34 nM
  koff: 0.00321 s⁻¹
  kon: 438000 M⁻¹ s⁻¹
[4]
  Kd: 2.82 nM
  koff: 0.0011 s⁻¹
  kon: 392000 M⁻¹ s⁻¹
[5]
  Kd: 9.89 nM
  koff: 0.00364 s⁻¹
  kon: 368000 M⁻¹ s⁻¹
[6]
  Kd: 9.81 nM
  koff: 0.00348 s⁻¹
  kon: 354000 M⁻¹ s⁻¹
[7]
  Response: 0.697 nm shift
[8]
  Response: 0.473 nm shift
[9]
  Response: 0.525 nm shift
[10]
  Response: 0.657 nm shift
[11]
  Response: 0.628 nm shift
[12]
  Response: 0.727 nm shift
[13]
  Response: 0.452 nm shift
[14]
  Response: 0.438 nm shift
[15]
  Response: 0.357 nm shift
[16]
  Response: 0.428 nm shift
[17]
  Response: 0.322 nm shift
[18]
  Response: 0.236 nm shift
[19]
  Kd: 0.124 nM
  koff: 4.26e-05 s⁻¹
  kon: 344000 M⁻¹ s⁻¹
[20]
  Kd: 0.273 nM
  koff: 9.67e-05 s⁻¹
  kon: 355000 M⁻¹ s⁻¹
[21]
  Kd: 0.0481 nM
  koff: 1.61e-05 s⁻¹
  kon: 335000 M⁻¹ s⁻¹
[22]
  Kd: 0.193 nM
  koff: 7.42e-05 s⁻¹
  kon: 385000 M⁻¹ s⁻¹
[23]
  Kd: 0.204 nM
  koff: 6.08e-05 s⁻¹
  kon: 298000 M⁻¹ s⁻¹
[24]
  Kd: 0.0815 nM
  koff: 2.37e-05 s⁻¹
  kon: 291000 M⁻¹ s⁻¹
